Measurements as given in US20240270846A1 (published 2024).
Residue numbers refer to the chain shown, from its start. Names and notes keep the numbering of the source.

B1: CE115HA000 H35A one-arm antibody (antibody, human IgG1, kappa, L234A L235A, N297A, name in Kabat numbering)
heavy: QVQLVESGGGVVQPGRSLRLSCAASGFTFSNAWMAWVRQAPGKGLEWVAQIKAKSNNYATYYAESVKGRFTISRDDSKNSLYLQMNSLKTEDTAVYYCRYVHYGAYYGVDAWGQGTTVTVSSASTKGPSVFPLAPSSKSTSGGTAALGCLVKDYFPEPVTVSWNSGALTSGVHTFPAVLQSSGLYSLSSVVTVPSSSLGTQTYICNVNHKPSNTKVDKKVEPKSCDKTHTCPPCPAPEAAGGPSVFLFPPKPKDTLMISRTPEVTCVVVDVSHEDPEVKFNWYVDGVEVHNAKTKPREEQYASTYRVVSVLTVLHQDWLNGKEYKCKVSNKALPAPIEKTISKAKGQPREPQVYTLPPSRCELTKNQVSLSCAVKGFYPSDIAVEWESNGQPENNYKTTPPVLDSDGSFFLVSKLTVDKSRWQQGNVFSCSVMHEALHNHYTQKSLSLSPDYKDDDDK
chain: EPKSSDKTHTCPPCPAPELLGGPSVFLFPPKPKDTLMISRTPEVTCVVVDVSHEDPEVKFNWYVDGVEVHNAKTKPREEQYNSTYRVVSVLTVLHQDWLNGKEYKCKVSNKALPAPIEKTISKAKGQPREPQVCTLPPSRDELTKNQVSLWCLVKGFYPSDIAVEWESNGQPENNYKTTPPVLDSDGSFFLYSKLTVDKSRWQQGNVFSCSVMHEALHNRYTQKSLSLSP
light: DIVMTQSPLSLPVTPGEPASISCRSSQSLVHSNRNTYLHWYQQKPGQAPRLLIYKVSNRFSGVPDRFSGSGSGTDFTLKISRVEAEDVGVYYCGQGTQVPYTFGQGTKLEIKRTVAAPSVFIFPPSDEQLKSGTASVVCLLNNFYPREAKVQWKVDNALQSGNSQESVTEQDSKDSTYSLSSTLTLSKADYEKHKVYACEVTHQGLSSPVTKSFNRGEC
notes: one-arm antibody
B2: CE115HA000 A32Y one-arm antibody (antibody, human IgG1, kappa, L234A L235A, N297A, name in Kabat numbering)
heavy: B1 heavy with A32Y, A35H
chain: B1 chain
light: B1 light
notes: one-arm antibody
B3: CE115HA000 A56K one-arm antibody (antibody, human IgG1, kappa, L234A L235A, N297A, name in Kabat numbering)
heavy: B1 heavy with A35H, A59K
chain: B1 chain
light: B1 light
notes: one-arm antibody
B4: CE115HA000 A52aD one-arm antibody (antibody, human IgG1, kappa, L234A L235A, N297A, name in Kabat numbering)
heavy: B1 heavy with A35H, A53D
chain: B1 chain
light: B1 light
notes: one-arm antibody
B5: CE115HA000 A56D one-arm antibody (antibody, human IgG1, kappa, L234A L235A, N297A, name in Kabat numbering)
heavy: B1 heavy with A35H, A59D
chain: B1 chain
light: B1 light
notes: one-arm antibody
B6: CE115HA000 A52aG one-arm antibody (antibody, human IgG1, kappa, L234A L235A, N297A, name in Kabat numbering)
heavy: B1 heavy with A35H, A53G
chain: B1 chain
light: B1 light
notes: one-arm antibody
B7: CE115HA000 A52aE one-arm antibody (antibody, human IgG1, kappa, L234A L235A, N297A, name in Kabat numbering)
heavy: B1 heavy with A35H, A53E
chain: B1 chain
light: B1 light
notes: one-arm antibody
B8: CE115HA000 A56G one-arm antibody (antibody, human IgG1, kappa, L234A L235A, N297A, name in Kabat numbering)
heavy: B1 heavy with A35H, A59G
chain: B1 chain
light: B1 light
notes: one-arm antibody
B9: CE115HA000 A52aP one-arm antibody (antibody, human IgG1, kappa, L234A L235A, N297A, name in Kabat numbering)
heavy: B1 heavy with A35H, A53P
chain: B1 chain
light: B1 light
notes: one-arm antibody
B10: CE115HA000 A52aS one-arm antibody (antibody, human IgG1, kappa, L234A L235A, N297A, name in Kabat numbering)
heavy: B1 heavy with A35H, A53S
chain: B1 chain
light: B1 light
notes: one-arm antibody
B11: CE115HA000 A52aV one-arm antibody (antibody, human IgG1, kappa, L234A L235A, N297A, name in Kabat numbering)
heavy: B1 heavy with A35H, A53V
chain: B1 chain
light: B1 light
notes: one-arm antibody
B12: CE115HA000 A52aY one-arm antibody (antibody, human IgG1, kappa, L234A L235A, N297A, name in Kabat numbering)
heavy: B1 heavy with A35H, A53Y
chain: B1 chain
light: B1 light
notes: one-arm antibody
B13: GLS3000 S27eM (Kabat) L chain altered form, one-arm antibody with CE115HA000 (antibody, human IgG1, kappa, L234A L235A, N297A, name in Kabat numbering)
heavy: B1 heavy with A35H
chain: B1 chain
light: B1 light with S32M
notes: one-arm antibody
B14: GLS3000 V27cL (Kabat) L chain altered form, one-arm antibody with CE115HA000 (antibody, human IgG1, kappa, L234A L235A, N297A, name in Kabat numbering)
heavy: B1 heavy with A35H
chain: B1 chain
light: B1 light with V30L
notes: one-arm antibody
B15: GLS3000 S27eN (Kabat) L chain altered form, one-arm antibody with CE115HA000 (antibody, human IgG1, kappa, L234A L235A, N297A, name in Kabat numbering)
heavy: B1 heavy with A35H
chain: B1 chain
light: B1 light with S32N
notes: one-arm antibody
B16: GLS3000 S27eP (Kabat) L chain altered form, one-arm antibody with CE115HA000 (antibody, human IgG1, kappa, L234A L235A, N297A, name in Kabat numbering)
heavy: B1 heavy with A35H
chain: B1 chain
light: B1 light with S32P
notes: one-arm antibody
B17: GLS3000 S27eQ (Kabat) L chain altered form, one-arm antibody with CE115HA000 (antibody, human IgG1, kappa, L234A L235A, N297A, name in Kabat numbering)
heavy: B1 heavy with A35H
chain: B1 chain
light: B1 light with S32Q
notes: one-arm antibody
B18: GLS3000 S52A (Kabat) L chain altered form, one-arm antibody with CE115HA000 (antibody, human IgG1, kappa, L234A L235A, N297A, name in Kabat numbering)
heavy: B1 heavy with A35H
chain: B1 chain
light: B1 light with S57A
notes: one-arm antibody
B19: GLS3000 V27cE (Kabat) L chain altered form, one-arm antibody with CE115HA000 (antibody, human IgG1, kappa, L234A L235A, N297A, name in Kabat numbering)
heavy: B1 heavy with A35H
chain: B1 chain
light: B1 light with V30E
notes: one-arm antibody
B20: GLS3000 V27cY (Kabat) L chain altered form, one-arm antibody with CE115HA000 (antibody, human IgG1, kappa, L234A L235A, N297A, name in Kabat numbering)
heavy: B1 heavy with A35H
chain: B1 chain
light: B1 light with V30Y
notes: one-arm antibody
B21: GLS3000 S27eR (Kabat) L chain altered form, one-arm antibody with CE115HA000 (antibody, human IgG1, kappa, L234A L235A, N297A, name in Kabat numbering)
heavy: B1 heavy with A35H
chain: B1 chain
light: B1 light with S32R
notes: one-arm antibody
B22: GLS3000 S27eV (Kabat) L chain altered form, one-arm antibody with CE115HA000 (antibody, human IgG1, kappa, L234A L235A, N297A, name in Kabat numbering)
heavy: B1 heavy with A35H
chain: B1 chain
light: B1 light with S32V
notes: one-arm antibody
B23: GLS3000 S56A (Kabat) L chain altered form, one-arm antibody with CE115HA000 (antibody, human IgG1, kappa, L234A L235A, N297A, name in Kabat numbering)
heavy: B1 heavy with A35H
chain: B1 chain
light: B1 light with S61A
notes: one-arm antibody
B24: GLS3000 S27eW (Kabat) L chain altered form, one-arm antibody with CE115HA000 (antibody, human IgG1, kappa, L234A L235A, N297A, name in Kabat numbering)
heavy: B1 heavy with A35H
chain: B1 chain
light: B1 light with S32W
notes: one-arm antibody
B25: GLS3000 S27eL (Kabat) L chain altered form, one-arm antibody with CE115HA000 (antibody, human IgG1, kappa, L234A L235A, N297A, name in Kabat numbering)
heavy: B1 heavy with A35H
chain: B1 chain
light: B1 light with S32L
notes: one-arm antibody
B26: GLS3000 V27cP (Kabat) L chain altered form, one-arm antibody with CE115HA000 (antibody, human IgG1, kappa, L234A L235A, N297A, name in Kabat numbering)
heavy: B1 heavy with A35H
chain: B1 chain
light: B1 light with V30P
notes: one-arm antibody
B27: GLS3000 S27eY (Kabat) L chain altered form, one-arm antibody with CE115HA000 (antibody, human IgG1, kappa, L234A L235A, N297A, name in Kabat numbering)
heavy: B1 heavy with A35H
chain: B1 chain
light: B1 light with S32Y
notes: one-arm antibody
B28: GLS3000 V27cI (Kabat) L chain altered form, one-arm antibody with CE115HA000 (antibody, human IgG1, kappa, L234A L235A, N297A, name in Kabat numbering)
heavy: B1 heavy with A35H
chain: B1 chain
light: B1 light with V30I
notes: one-arm antibody
B29: GLS3000 S27eK (Kabat) L chain altered form, one-arm antibody with CE115HA000 (antibody, human IgG1, kappa, L234A L235A, N297A, name in Kabat numbering)
heavy: B1 heavy with A35H
chain: B1 chain
light: B1 light with S32K
notes: one-arm antibody
B30: GLS3000 V27cD (Kabat) L chain altered form, one-arm antibody with CE115HA000 (antibody, human IgG1, kappa, L234A L235A, N297A, name in Kabat numbering)
heavy: B1 heavy with A35H
chain: B1 chain
light: B1 light with V30D
notes: one-arm antibody
B31: GLS3000 V27cS (Kabat) L chain altered form, one-arm antibody with CE115HA000 (antibody, human IgG1, kappa, L234A L235A, N297A, name in Kabat numbering)
heavy: B1 heavy with A35H
chain: B1 chain
light: B1 light with V30S
notes: one-arm antibody
B32: GLS3000 S27eT (Kabat) L chain altered form, one-arm antibody with CE115HA000 (antibody, human IgG1, kappa, L234A L235A, N297A, name in Kabat numbering)
heavy: B1 heavy with A35H
chain: B1 chain
light: B1 light with S32T
notes: one-arm antibody
B33: GLS3000 Y32A (Kabat) L chain altered form, one-arm antibody with CE115HA000 (antibody, human IgG1, kappa, L234A L235A, N297A, name in Kabat numbering)
heavy: B1 heavy with A35H
chain: B1 chain
light: B1 light with Y37A
notes: one-arm antibody

Target: T1, CD3 epsilon homodimer protein (UniProt P07766 23-126)
T1 construct: also called CD3 (CD3 epsilon)
Assay: SPR Biacore T200, antibody over immobilised CD3e homodimer;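 also: CD3 epsilon homodimer amine-coupled on a CM4 chip, run at 25 °C in HBS-EP+, Z = bound amount of each single-residue H chain variant over that of the parent antibody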
T1 sequence (P07766 23-126): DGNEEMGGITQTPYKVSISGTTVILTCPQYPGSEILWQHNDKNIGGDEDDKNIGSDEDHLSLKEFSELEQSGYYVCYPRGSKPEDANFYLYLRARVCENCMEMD

Row | ratio of amounts bound (Z=Y/X vs CE115HA000) | Binder
1 | 0.17 | B1
2 | 0.33 | B2
3 | 1.35 | B3
4 | 1.34 | B4
5 | 0.51 | B5
6 | 0.81 | B6
7 | 0.57 | B7
8 | 0.61 | B8
9 | 0.15 | B9
10 | 1.05 | B10
11 | 0.52 | B11
12 | 0.31 | B12

Target: T2, CD3 epsilon homodimer protein (UniProt P07766 23-126)
T2 construct: construct not described; homodimer as printed; also called CD3 (CD3 epsilon)
Assay: SPR Biacore T200, CD3 epsilon homodimer immobilized; vs unaltered GLS3000;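 also: antibody variants flowed as analyte over CD3 epsilon homodimer amine-coupled to a CM4 chip, at 25 °C in HBS-EP+ running buffer, fitted with Biacore T200 Evaluation Software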
T2 sequence (P07766 23-126): as above

Row | KD ratio to GLS3000 (Affinity up) | Binder
13 | 1.11 | B13
14 | 0.81 | B14
15 | 1.01 | B15
16 | 1.06 | B16
17 | 1.08 | B17
18 | 0.9 | B18
19 | 1.1 | B19
20 | 1.25 | B20
21 | 1.35 | B21
22 | 0.95 | B22
23 | 1.18 | B23
24 | 1.32 | B24
25 | 1.06 | B25
26 | 3.71 | B26
27 | 1.1 | B27
28 | 1.03 | B28
29 | 1.32 | B29
30 | 3.21 | B30
31 | 3.04 | B31
32 | 0.98 | B32
33 | 66.8 | B33
